According to article PMC12044695:

Tests used:
Assay in all cases: ELISA; enzyme-linked lectin assay (ELLA): extracted glycoproteins immobilised at 4 μg/mL on high-binding 96-well plates, blocked with 0.5% PVA, probed 2 h at room temperature with WGAHRP or AuNP–WGAHRP (1 μg/mL WGAHRP) in PBS with 1 mM CaCl2 and 1 mM MgCl2, ABTS read at 405 nm; then the same plate probed with WGA antibodies and AlexaFluor 633 secondary antibodies (FLISA)
[1] = target: WGA-binding glycoproteins purified from C2C12 cells in differentiation conditions
[2] = target: WGA-binding glycoproteins purified from C2C12 cells in growth condition
[3] = target: WGA-binding glycoproteins purified from NE-4C cells in growth condition
[4] = target: WGA-binding glycoproteins purified from NSC-34 cells in differentiation conditions
[5] = target: WGA-binding glycoproteins purified from NSC-34 cells in growth condition

fluorescence intensity (FLISA) against WGAHRP (% lower than WGAHRP) [1]: 50
fluorescence intensity (FLISA) against WGAHRP (% lower than WGAHRP) [2]: 50
fluorescence intensity (FLISA) against WGAHRP (% lower than WGAHRP) [3]: 50
fluorescence intensity (FLISA) against WGAHRP (% lower than WGAHRP) [4]: 50
fluorescence intensity (FLISA) against WGAHRP (% lower than WGAHRP) [5]: 50
Substance: gold nanoparticle-conjugated WGAHRP (AuNP-MSA-WGAHRP conjugate) (from UniProt P00433 31-338)
